Measurements taken from patent US20110124841A1 (published 2011).
MPEG 20 kDa = 20 kDa MPEG from MPEG iodoacetamide

B1: PEGylated SG C-protein (residues 388 to 449 of SEQ ID NO:3) (other)
chain: GTLEHHHHHHGSEAVLNYNHRIVNIEAVSETIDVYDIEVPHTHNFALASGVFVHNSAGGC(MPEG 20 kDa)GP
B2: PEGylated SB C-protein (residues 388 to 453 of SEQ ID NO:1) (other)
chain: GTLEHHHHHHGSPEIEKLSQSDIYWDPIVSITETGVEEVFDLTVPGPRNFVANDIIVHNSGGGC(MPEG 20 kDa)GP

How the values were obtained:
[1] = biological target: SG N-protein (SEQ ID NO:4); assay: cell-based or functional assay
[2] = biological target: SB N-protein (SEQ ID NO:2); assay: cell-based or functional assay

| Binder | efficiency of the trans-splicing, from SDS-PAGE protein band intensity; room temperature, molar ratio of C-protein to N-protein approximately 1 (Lane 9) [1] [%] | efficiency of the trans-splicing, from SDS-PAGE protein band intensity; room temperature, molar ratio of C-protein to N-protein approximately 5 (Lane 13) [1] [%] | efficiency of the trans-splicing reaction, from SDS-PAGE protein band intensity; molar ratio approximately 1 [2] [%] |
| --- | --- | --- | --- |
| B1 | ~50 | ~90 |  |
| B2 |  |  | ~30 |
